# Measured values published in patent US5550213, “Inhibitors of urokinase plasminogen activator” (Rutgers, The State University of New Jersey, dated 1996).
# Residue numbers refer to the chain shown, from its start.
# B1: The PAI-2 derived mutant, 88 (designed binder)
# chain: VDCSEYPKPACGRTGHPLCGSDNKTYGNKCNFCNAVVESNGTLTLSHFGKC
# B2: The PAI-1 derived mutant, 89 (designed binder)
# chain: B1 chain with G12A, T14M, G15A, H16A
# B3: The Plasminogen derived mutant, 90 (designed binder)
# chain: B1 chain with T14V, G15V, H16G
# B4: The Nexin-1 derived mutant, 91 (designed binder)
# chain: B1 chain with G12A, T14S, G15S, H16A
# Target: T1, Urokinase plasminogen activator (Homo sapiens (Human), UniProt P00749)
# Test: inhibition of UK activity; Ki by non-linear regression (Enzfitter) of free enzyme versus inhibitor concentration
# Experimental: Fractional enzyme activities for each inhibitor-UK interaction of the above discussed inhibitors were determined by the assay method of Empie and Laskowski (Empie, M. W. et al., *Biochem.* 21:2274–2284 (1982)), as adapted from Green and Work (Green, N. M. et al., Biochem. J. 54:347–352 (1953)). The concentration of UK used for these reactions was 35 nM. The reactions were carried out in Buffer C. […] These five mutants include the four detailed above (88, 89, 80, AND 91), and also a mutant with arginine at the P1 site of OM3TKY (P1-Arg). […] The values for PSTI, PAI-1, PAI-2, and Nexin-1 were obtained from Turpeinen, U. et al. (*Biochem. J.* 254:911–914 (1988)), Kruithof, C.K.O. et al. (Thromb.-Haemost. 55::65–68 (1986)), Christensen, U. et al. (Thromb.-Haemost. 48:24–26 (1982)), and Stein, P. E. et al. (*Nature* 347:99–102 (1990)), respectively.
# K_i values for the wild-type and mutant inhibitors versus urokinase were also determined by non-linear regression of the following equation: […]
# The non-linear regression was done using the program Enzfitter, by Robin Leatherbarrow. E_o represents a total enzyme concentration in the reaction, I_o represents total inhibitor concentration, E is the free enzyme for a given inhibitor concentration and K_i is the equilibrium constant for the inhibitor. E and K_i are the unknowns in the equation, and are solved for during the regression analysis. Enzyme and inhibitor concentrations used were determined as mentioned above.
row,Binder,Ki
1,B1,67.6 nM
2,B2,35.9 nM
3,B3,51.3 nM
4,B4,505 nM

# Target: T1, Urokinase plasminogen activator
# Test: inhibition of UK (35 nM) activity on S-2288; Ki as slope of [I]o/(1-a) vs. 1/a
row,Binder,Ki
1,B1,40 nM
2,B2,0.31 nM
3,B3,106 nM
4,B4,120 nM
